Results on two molecules are retold here after patent US10487337B2, “Methods for monocot plant improvement” (Agresearch Limited, priority 2014, dated 2019).

The target of assay [1] is T1, BZR1 (Arabidopsis thaliana, UniProt Q8S307).
T1 construct: expressed in transfected cells; host or cells: Nicotiana benthamiana leaves (Agrobacterium infiltration)
T1 sequence (Q8S307 1-336): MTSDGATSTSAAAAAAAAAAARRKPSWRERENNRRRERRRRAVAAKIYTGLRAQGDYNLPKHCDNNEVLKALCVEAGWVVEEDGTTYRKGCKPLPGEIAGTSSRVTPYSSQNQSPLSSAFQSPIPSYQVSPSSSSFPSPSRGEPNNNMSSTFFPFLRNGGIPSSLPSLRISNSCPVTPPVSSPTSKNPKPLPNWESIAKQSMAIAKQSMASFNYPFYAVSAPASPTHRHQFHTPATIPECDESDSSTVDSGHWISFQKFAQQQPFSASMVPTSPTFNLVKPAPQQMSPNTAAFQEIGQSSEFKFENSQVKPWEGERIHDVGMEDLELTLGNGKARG
In words: BiFC interaction with BZR1 in Nicotiana benthamiana leaves. The class given is cell-based. Conditions: fully expanded leaves, co-expressed with cYFP-BZR1. From the text: The binary BiFC-Gateway YFP vectors pDEST-VYNE(R)^GW (Venus aa 1-173) and pDEST-VYCE(R)^GW (Venus aa 156-239) with N-terminal fusions, were used to construct the following vectors; pDESTnYFP-BZR1, pDESTnYFP-NINJA, pDESTnYFP-PPD1, pDESTcYFP-BZR1, pDESTcYFP-PPD1, pDESTcYFP-PPD1Δppd, pDESTcYFP-PPD1Δtify and pDESTcYFP-PPD1Δjas*. For transient in planta expression of proteins interacting with PPD1 or BZR, NINJA and TPL were Gateway® sub-cloned into pRSh1, to construct pRSh1-NINJA and pRSh1-TPL. Plasmids for co-immunoprecipitation: A synthesised DNA construct encoding PPD1 with a 3×c-myc C-terminal fusion was sub-cloned into pRSh1 to produce pRSh1-PPD1-3×c-myc, while the NINJA cDNA sequence was sub-cloned into pB7FWG2,0 (Karimi et al 2002, Trends Plant Sci. 7, 193-195) to construct pB7FWG2-NINJA-GFP. When expressed these constructs produced proteins listed in sequences 60, 62, 70 71 72 73 74 75 76 77 78 79: including TOPLESS (TPL), NINJA, Bimolecular Fluorescence (BiFC) nYFP, BiFC cYFP, BiFC nYFP-NINJA, BiFC nYFP-BZR1, BiFC cYFP-PPD1, BiFC cYFP-NINJA, BiFC cYFP-BZR1, BiFC cYFP-PPD1-ppd, BiFC cYFP-PPD1-tify, BiFC cYFP-PPD1-jas*.
Transient BiFC experiments were performed using combinations of pDESTnYFP and pDESTcYFP plasmids, with or without plasmids for the expression of NINJA (pRSh1-NINJA) or TPL (pRSh1-TPL) and Agrobacterium-infiltration of Nicotiana benthamiana leaves. For infiltration Agrobacterium tumefaciens GV3101 strains containing the binary vectors were re-suspended from plates and prepared for transformation as described for the LUC assay. All YFP and expression strains were mixed in ratios of 1:1 (vol/vol) with the addition of strain P19 at 1/10th volume. Five leaf discs were sampled from each infiltrated leaf after 40 h. Two hours prior to sampling for microscopic fluorescence observations leaves were infiltrated with a 1 μg/ml DAPI solution to stain nuclei. YFP fluorescence and DAPI staining was detected using an Olympus Fluoview FV10i confocal laser scanning microscope. Each experiment was repeated twice.

Assay [2] concerns the target T2, BZR1 (Arabidopsis thaliana, UniProt Q8S307).
T2 construct: expressed in transfected cells; host or cells: yeast strain MaV203
T2 sequence (Q8S307 with tags, fused parts or gaps): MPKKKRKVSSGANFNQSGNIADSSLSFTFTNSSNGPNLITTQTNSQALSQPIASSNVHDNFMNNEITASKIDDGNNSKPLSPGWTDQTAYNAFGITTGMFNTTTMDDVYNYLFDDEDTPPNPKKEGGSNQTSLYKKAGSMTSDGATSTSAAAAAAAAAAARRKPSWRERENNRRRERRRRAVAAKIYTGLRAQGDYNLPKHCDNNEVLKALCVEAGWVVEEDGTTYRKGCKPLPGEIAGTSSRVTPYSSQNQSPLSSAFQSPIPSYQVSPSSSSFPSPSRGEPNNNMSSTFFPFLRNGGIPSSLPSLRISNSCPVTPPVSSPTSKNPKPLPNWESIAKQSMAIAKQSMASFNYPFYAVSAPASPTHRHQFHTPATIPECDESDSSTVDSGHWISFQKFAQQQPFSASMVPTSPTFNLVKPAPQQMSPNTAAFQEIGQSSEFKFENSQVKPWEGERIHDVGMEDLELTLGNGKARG
Briefly: Yeast two hybrid (Y2H) interaction with BZR1. In kind it is binding. From the text: The constructs for Y2H and BiFC assays were generated as follows. Arabidopsis DNA sequences encoding the open reading frames for; At4g14713 (PPD1) and truncation and deletion derivatives of PPD1: PPD1; PPD1Δppd (N-terminal truncation of sequences encoding aa 1-61), PPD1Δtify, (internal deletion of sequences encoding aa 154-186), PPD1Δjas*(C-terminal truncation of sequences encoding aa 229-313) (FIG. 5), At4g28910 (NINJA), At1g15750 (TPL), At1g75080 (BZR1), a synthetic PUAS-35S promoter, and sequences encoding GAL4DBD and c-myc fusion proteins were synthesised and sequence verified by GeneArt. Most sequences were supplied as clones in pENTR221 ready for Gateway cloning into yeast and plant expression vectors. The exception, a promoter sequence for in planta transcription activation assays, incorporating 5′ Xho1 and 3′ Nco1 restriction enzyme sites, was supplied cloned in pMA-RQ. Plasmids for the transient LUC reporter assay: A synthetic promoter with 5×UAS GAL4 DNA binding sites upstream of a −105 bp CaMV35S promoter was cloned into the XhoI-NcoI sites within a dual luciferase construct pNWA62, which contains an intron-containing Firefly Luciferase gene (LUC) and 35Spro::Renilla Luciferase (REN) as an internal standard, to construct pAML7. […]

For “nYFP-PPD1: BiFC fusion of PPD1 with the N-terminal Venus YFP fragment”, the “interaction with BZR1” value in the assay with BZR1 [1] is “no interaction was observed”.

B1: TPL: TOPLESS transcriptional co-repressor of Arabidopsis, SEQ ID NO: 60 (protein)
chain: MSSLSRELVFLILQFLDEEKFKETVHKLEQESGFFFNMKYFEDEVHNGNWDEVEKYLSGFTKVDDNRYSMKIFFEIRKQKYLEALDKHDRPKAVDILVKDLKVFSTFNEELFKEITQLLTLENFRENEQLSKYGDTKSARAIMLVELKKLIEANPLFRDKLQFPTLRNSRLRTLINQSLNWQHQLCKNPRPNPDIKTLFVDHSCGPPNGARAPSPVNNPLLGGIPKAGGFPPLGAHGPFQPTASPVPTPLAGWMSSPSSVPHPAVSAGAIALGGPSIPAALKHPRTPPTNASLDYPSADSEHVSKRTRPMGISDEVNLGVNMLPMSFSGQAHGHSPAFKAPDDLPKTVARTLSQGSSPMSMDFHPIKQTLLLVGTNVGDIGLWEVGSRERLVQKTFKVWDLSKCSMPLQAALVKEPVVSVNRVIWSPDGSLFGVAYSRHIVQLYSYHGGEDMRQHLEIDAHVGGVNDISFSTPNKQLCVITCGDDKTIKVWDAATGVKRHTFEGHEAPVYSVCPHYKENIQFIFSTALDGKIKAWLYDNMGSRVDYDAPGRWCTTMAYSADGTRLFSCGTSKDGESFIVEWNESEGAVKRTYQGFHKRSLGVVQFDTTKNRYLAAGDDFSIKFWDMDAVQLLTAIDGDGGLQASPRIRFNKEGSLLAVSGNENVIKIMANSDGLRLLHTFENISSESSKPAINSIAAAAAAAATSAGHADRSANVVSIQGMNGDSRNMVDVKPVITEESNDKSKIWKLTEVSEPSQCRSLRLPENLRVAKISRLIFTNSGNAILALASNAIHLLWKWQRNERNATGKATASLPPQQWQPASGILMTNDVAETNPEEAVPCFALSKNDSYVMSASGGKISLFNMMTFKTMATFMPPPPAATFLAFHPQDNNIIAIGMDDSTIQIYNVRVDEVKSKLKGHSKRITGLAFSNVLNVLVSSGADAQLCVWNTDGWEKQRSKVLPLPQGRPNSAPSDTRVQFHQDQAHFLVVHETQLAIYETTKLECMKQWAVRESLAPITHATFSCDSQLVYASFMDATVCVFSSANLRLRCRVNPSAYLPASLSNSNVHPLVIAAHPQEPNMFAVGLSDGGVHIFEPLESEGKWGVAPPAENGSASGAPTAPSVGASASDQPQR
modifications: Consensus sequence
Turning to B1, the “interaction with BZR1” value with BZR1 [2] is “direct interaction occurs”.
